Blank lines part the entries; values can stand above or below the binder they belong to.
Assays:
[1] = biological target: T1, mouse PTK-7 recombinant protein (mouse, UniProt Q8BKG3 23-696, limits assumed); assay: ELISA, plate-coated mouse PTK7 protein, anti-human Fc-HRP detection
T1 construct: also called mouse PTK7 protein
T1 sequence (looked up): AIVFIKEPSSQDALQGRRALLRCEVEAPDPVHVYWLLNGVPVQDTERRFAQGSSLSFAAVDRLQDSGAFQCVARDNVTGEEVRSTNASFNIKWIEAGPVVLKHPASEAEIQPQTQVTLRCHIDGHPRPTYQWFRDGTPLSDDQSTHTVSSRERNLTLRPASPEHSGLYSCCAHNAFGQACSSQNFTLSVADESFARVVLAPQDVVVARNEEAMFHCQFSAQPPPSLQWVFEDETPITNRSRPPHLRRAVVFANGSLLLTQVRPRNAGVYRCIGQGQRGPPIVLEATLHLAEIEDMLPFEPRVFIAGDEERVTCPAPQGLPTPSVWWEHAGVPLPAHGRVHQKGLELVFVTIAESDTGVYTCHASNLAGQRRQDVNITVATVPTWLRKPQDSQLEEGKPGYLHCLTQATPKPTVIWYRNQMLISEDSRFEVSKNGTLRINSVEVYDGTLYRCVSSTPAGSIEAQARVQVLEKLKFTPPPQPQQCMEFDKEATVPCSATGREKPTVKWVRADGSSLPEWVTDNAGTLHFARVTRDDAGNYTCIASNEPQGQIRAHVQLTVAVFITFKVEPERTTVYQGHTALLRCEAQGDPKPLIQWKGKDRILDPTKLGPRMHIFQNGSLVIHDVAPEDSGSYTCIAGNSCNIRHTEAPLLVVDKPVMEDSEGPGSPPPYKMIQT
Description: (§1) Binding specificity property was tested by ELISA according to a standard protocol. Specifically, 96-well micro-plates were coated with 2 μg/mL human, cynomolgus, mouse, and rat PTK-7 recombinant protein in PBS 100 μL per well, incubated overnight at 4° C. Plates were washed twice by TBS+0.5% Tween20. 200 μL of blocking buffer (2% BSA in PBS) was added to each well and incubated at 37° C. for 2 hours. Plates were washed using the buffer mentioned above. Serially diluted antibodies were added to the ELISA plate with 100 μL per well and incubated for 1 hour at room temperature. Then plates were washed for 3 times. After washing, HRP conjugated anti-human Fc antibody solution (abcam, ab98624, diluted with blocking buffer) was added to the plate with 100 μl per well. The plates were incubated at room temperature for 1 hour and then washed for 3 times. Then TMB solution was added to plates with 100 μl per well, placed at room temperature for 5-15 mins, then the stop solution (2M H₂SO₄) was added with 50 μl per well. Finally, the result was measured by absorbance at A₄₅₀ and A₆₃₀.

[2] = biological target: T1, mouse PTK-7 recombinant protein; assay: ELISA, plate coated with 2 ug/mL mouse PTK-7 recombinant protein, HRP anti-human Fc detection, OD450
Description: as §1

[3] = biological target: T2, rat PTK-7 recombinant protein (rat, UniProt A0A8I6ALM9 40-713); assay: ELISA, plate coated with 2 ug/mL rat PTK-7 recombinant protein, HRP anti-human Fc detection, OD450
T2 construct: also called rat PTK7 protein
Description: as §1

[4] = biological target: T3, human PTK7 extra-cellular domain (ECD) linked to His tag (human, UniProt Q13308 31-704); assay: BLI (Octet RED), antibody on anti-human IgG Fc tips, PTK7 ECD-His 100 to 1.56 nM in solution, 1:1 global fit
T3 construct: extracellular domain; also called hPTK7-his; human PTK7-his protein; not shown: His tag
T3 sequence (looked up): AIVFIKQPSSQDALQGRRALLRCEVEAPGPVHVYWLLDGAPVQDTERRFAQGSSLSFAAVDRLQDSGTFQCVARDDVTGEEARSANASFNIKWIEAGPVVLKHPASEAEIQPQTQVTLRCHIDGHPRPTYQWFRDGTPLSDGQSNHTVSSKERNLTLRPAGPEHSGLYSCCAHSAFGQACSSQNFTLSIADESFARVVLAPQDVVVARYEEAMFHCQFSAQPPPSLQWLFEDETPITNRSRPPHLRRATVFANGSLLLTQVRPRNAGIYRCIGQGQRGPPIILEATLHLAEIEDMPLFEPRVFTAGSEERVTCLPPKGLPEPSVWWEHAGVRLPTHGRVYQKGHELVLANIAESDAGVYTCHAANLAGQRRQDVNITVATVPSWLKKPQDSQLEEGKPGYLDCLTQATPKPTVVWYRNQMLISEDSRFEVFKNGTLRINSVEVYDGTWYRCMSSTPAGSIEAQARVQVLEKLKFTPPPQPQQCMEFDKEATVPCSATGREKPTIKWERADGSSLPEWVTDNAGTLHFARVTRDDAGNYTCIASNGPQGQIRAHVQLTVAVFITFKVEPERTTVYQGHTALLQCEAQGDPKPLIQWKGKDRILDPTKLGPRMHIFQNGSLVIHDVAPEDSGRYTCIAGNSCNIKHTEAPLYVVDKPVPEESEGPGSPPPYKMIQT
Description: Recombinant proteins consisting of the PTK7 extra-cellular domain (ECD) linked to His tag were purchased from ACRO biosystems. […] Binding assays using varying concentrations from 100 nM down to 1.56 nM of recombinant proteins (human, cynomolgus) in solution were performed using Octet RED (ForteBio). Association time was set at 180 seconds and dissociation time was set at 300 seconds. Binding affinity was calculated using ForteBio Data Acquisition 6.3 software (ForteBio). Affinity was derived by fitting the kinetic data to a 1:1 Langmuir binding model utilizing global fitting algorithms.

[5] = biological target: T2, rat PTK-7 recombinant protein; assay: ELISA, plate-coated rat PTK7 protein, anti-human Fc-HRP detection
Description: as §1

[6] = biological target: T2, rat PTK-7 recombinant protein; assay: ELISA, plate-coated rat PTK7 recombinant protein
Description: as §1

EC50 [1]: 5.24 nM
EC50 [2]: 1.57 nM
EC50 [3]: 5.24 nM
Kd [4]: ≤ 0.00139 nM
koff [4]: < 1e-07 s⁻¹
kon [4]: 34800 M⁻¹ s⁻¹
EC50 [5]: 1.57 nM
B1: humanized antibody 2C5 (antibody, V domains shown)
VH: QVQLVQSGAEVKKPGASVKVSCKASGYTFTDYYINWVRQAPGQGLEWMGDINPYSGGPVYNQKFMARVTMTVDKSINTAYMELSRLRSDDTAVYYCARGDYYGSNYNYWGQGTLVTVSS
VL: EIVLTQSPATLSVSPGERATLSCRASQNIGTSIHWYQQKPGQAPRLLIKFASESISGIPARFSGSGSGTEFTLTISSLQSEDIAVYYCQQSNNWPYTFGQGTKLEIK
notes: Only variable regions are tied to 2C5; It was detected with anti-human Fc, so it has a human Fc

Kd [4]: 0.798 nM
koff [4]: 0.000132 s⁻¹
kon [4]: 166000 M⁻¹ s⁻¹
binding result [6]: no binding
B2: humanized antibody 13C4 (antibody, V domains shown)
VH: QVQLVESGGGLVKPGGSLRLSCAASGFAFSTYDMFWIRQAPGKGLEWVSTISSGGGYTYYPGSVKGRFTISRDNAKNSLYLQMNSLRAEDTAVYYCVRPLLRDSYFYFDVWGQGTMVTVSS
VL: EIVMTQSPATLSVSPGERATLSCRASSSVSSSYLHWYQQKPGQAPRLLIFRTSNLASGIPARFSGSGSGTEYTLTISSLQSEDAAVYYCQQYSGYPLTFGQGTKLEIK
notes: Only variable regions are tied to 13C4; It was detected with anti-human Fc

binding result [6]: no binding
B3: humanized antibody 2C8 (antibody, V domains shown)
VH: QIQLVQSGAEVKKPGASVKVSCKASGYTFTTYGMSWVRQAPGQGLEWMGWINTHSGVPTYVDEFKGRVTMTLDTSTSTAYMELSSLRSEDTAVYYCARSPFDYGSRGAWFVYWGQGTTVTVSS
VL: DVVMTQSPDSLAVSLGERATINCRSSQSIVHNSGDTYLEWYQQKPGQPPKLLIYKVSNRFPGVPDRFSGSGSGTDFTLTISSLQAEDLAVYYCFQGSHVPWTFGGGTKVEIK
notes: Only variable regions are tied to 2C8 by name; It was detected with anti-human Fc

Source: US20250115680A1 (PROFOUNDBIO US, published 2025)
